The values that follow come from patent US6482605.

The series addresses EGF receptor (endogenous, in PC12 cell lysate).

B1: histidine-tagged PTP20 wild-type (6 histidine residues at the N-terminus), tetracycline-controlled expression in PC12 cells (protein)
chain: MHHHHHHSRQSDLVRSFLEQQEARDHRKGAILAREFSDIKARSVAWKTEGVCSTKAGSQQGNSKKNRYKDVVPYDETRVILSLLQEEGHGDYINANFIRGTDGSQAYIATQGPLPHTLLDFWRLVWEFGIKVILMACQETENGRRKCERYWAQEREPLQAGPFCITLTKETALTSDITLRTLQVTFQKESRPVHQLQYMSWPDHGVPSSSDHILTMVEEARCLQGLGPGPLCVHCSAGCGRTGVLCAVDYVRQLLLTQTIPPNFSLFEVVLEMRKQRPAAVQTEEQYRFLYHTVAQLFSRTLQNNSPLYQNLKENRAPICKDSSSLRTSSALPATSRPLGGVLRSISVPGPPTLPMADTYAVVQKRGASGSTGPGTRAPNSTDTPIYSQVAPRIQRPVSHTENAQGTTALGRVPADENPSGPDAYEEVTDGAQTGGLGFNLRIGRPKGPRDPPAEWTRV
On to B1, for which the “tyrosine phosphorylation of EGF receptor upon EGF stimulation (precipitation, anti-phosphotyrosine blot)” value is reported as “Overexpression of PTP20 wt resulted in dramatic dephosphorylation of EGF receptor”.
